Measurements: US20260103541A1 (UNIVERSIT T Z RICH, published 2026)

Columns and labels:
[1] = biological target: T1, recombinant mouse FAP (R&D Systems) (mouse, UniProt P97321 26-761); assay: ELISA, recombinant mouse FAP coated, 100 nM DARPin, anti-FLAG detection
T1 construct: also called Recombinant mFAP
T1 sequence: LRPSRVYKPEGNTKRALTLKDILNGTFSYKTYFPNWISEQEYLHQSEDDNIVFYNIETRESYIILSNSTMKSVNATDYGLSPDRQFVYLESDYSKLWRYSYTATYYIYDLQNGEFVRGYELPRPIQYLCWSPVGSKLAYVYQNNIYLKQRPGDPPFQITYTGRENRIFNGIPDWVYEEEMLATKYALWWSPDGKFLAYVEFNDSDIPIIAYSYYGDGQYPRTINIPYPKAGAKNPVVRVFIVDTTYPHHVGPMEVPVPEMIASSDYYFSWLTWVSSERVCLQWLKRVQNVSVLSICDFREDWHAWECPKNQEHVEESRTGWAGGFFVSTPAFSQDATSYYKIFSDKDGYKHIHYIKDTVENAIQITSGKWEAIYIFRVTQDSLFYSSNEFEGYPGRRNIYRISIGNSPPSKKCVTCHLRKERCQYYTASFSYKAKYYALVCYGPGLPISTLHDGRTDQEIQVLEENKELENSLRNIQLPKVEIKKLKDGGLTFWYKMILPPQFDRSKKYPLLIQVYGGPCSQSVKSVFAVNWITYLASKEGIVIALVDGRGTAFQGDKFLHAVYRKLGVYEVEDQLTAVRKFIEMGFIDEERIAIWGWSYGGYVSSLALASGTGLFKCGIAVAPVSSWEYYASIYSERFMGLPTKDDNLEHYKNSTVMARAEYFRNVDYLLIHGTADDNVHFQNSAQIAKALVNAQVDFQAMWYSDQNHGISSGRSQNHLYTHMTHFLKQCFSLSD
Experimental: Recombinant mFAP (R&D Systems), and recombinant maltose-binding protein (MBP; inhouse production) for a positive control, were used for a DARPin binding analysis via ELISA. Target protein was coated overnight (O/N) at 4° C. on MaxiSorp™ 96-well plates (Nunc). Blocking was performed for 2 h at RT using ELISA-blocking buffer (PBS containing 0.5% (w/v) BSA). Plates were washed with ELISA-PBS-T (PBS containing 0.05% (v/v) Tween 20). Samples were diluted (100 nM DARPin concentration) in ELISA-PBS-TB (ELISA PBS T containing 0.5% (w/v) BSA) and incubated for 1 h at 4° C. while shaking. DARPin detection was performed with rabbit anti-FLAG antibody (GenScript, A01868; 1:5,000) and goat anti-rabbit-AP antibody (Sigma Aldrich, A3687; 1:10,000), both diluted in ELISA-PBS-TB and incubated for 1 h at 4° C. while shaking. Substrate solution consisting of 3 mM p-nitrophenyl phosphate (pNPP) diluted in pNPP buffer (50 mM NaHCO₃, 50 mM MgCl₂) was used for final detection. A Tecan Infinite M1000 plate reader (Tecan) was used to measure the absorbance at 405 nm.

[2] = biological target: T2, mouse FAP on cells (mouse, UniProt P97321 1-761); assay: cell-based binding assay
T2 construct: also called murine FAP; mFAP
T2 sequence: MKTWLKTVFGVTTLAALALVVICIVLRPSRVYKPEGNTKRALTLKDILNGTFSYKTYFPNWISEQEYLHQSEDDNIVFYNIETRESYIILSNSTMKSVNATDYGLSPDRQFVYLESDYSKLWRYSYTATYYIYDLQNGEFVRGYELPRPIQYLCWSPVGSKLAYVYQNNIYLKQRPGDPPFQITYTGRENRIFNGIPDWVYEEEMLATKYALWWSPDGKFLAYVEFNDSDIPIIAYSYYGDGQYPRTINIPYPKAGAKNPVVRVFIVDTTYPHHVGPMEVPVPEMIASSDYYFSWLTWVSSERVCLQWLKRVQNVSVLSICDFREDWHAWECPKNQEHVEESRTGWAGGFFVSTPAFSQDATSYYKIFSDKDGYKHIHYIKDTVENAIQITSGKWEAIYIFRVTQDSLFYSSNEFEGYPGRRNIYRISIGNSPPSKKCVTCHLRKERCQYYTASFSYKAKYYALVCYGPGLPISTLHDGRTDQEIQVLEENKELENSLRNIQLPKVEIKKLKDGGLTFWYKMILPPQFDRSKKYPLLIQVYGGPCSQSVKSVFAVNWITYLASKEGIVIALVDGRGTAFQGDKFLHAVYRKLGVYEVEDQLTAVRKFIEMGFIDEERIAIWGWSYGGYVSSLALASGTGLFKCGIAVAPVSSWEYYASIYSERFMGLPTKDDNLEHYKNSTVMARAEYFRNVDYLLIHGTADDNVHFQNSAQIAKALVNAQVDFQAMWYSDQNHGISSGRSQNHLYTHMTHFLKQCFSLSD

[3] = biological target: T3, human FAP (fibroblast activation protein) on HT1080hFAP cells (human, UniProt Q12884 1-760); assay: flow cytometry cell-based binding assay, HT1080hFAP against FAP-negative HT1080 cells
T3 construct: also called seprase
T3 sequence: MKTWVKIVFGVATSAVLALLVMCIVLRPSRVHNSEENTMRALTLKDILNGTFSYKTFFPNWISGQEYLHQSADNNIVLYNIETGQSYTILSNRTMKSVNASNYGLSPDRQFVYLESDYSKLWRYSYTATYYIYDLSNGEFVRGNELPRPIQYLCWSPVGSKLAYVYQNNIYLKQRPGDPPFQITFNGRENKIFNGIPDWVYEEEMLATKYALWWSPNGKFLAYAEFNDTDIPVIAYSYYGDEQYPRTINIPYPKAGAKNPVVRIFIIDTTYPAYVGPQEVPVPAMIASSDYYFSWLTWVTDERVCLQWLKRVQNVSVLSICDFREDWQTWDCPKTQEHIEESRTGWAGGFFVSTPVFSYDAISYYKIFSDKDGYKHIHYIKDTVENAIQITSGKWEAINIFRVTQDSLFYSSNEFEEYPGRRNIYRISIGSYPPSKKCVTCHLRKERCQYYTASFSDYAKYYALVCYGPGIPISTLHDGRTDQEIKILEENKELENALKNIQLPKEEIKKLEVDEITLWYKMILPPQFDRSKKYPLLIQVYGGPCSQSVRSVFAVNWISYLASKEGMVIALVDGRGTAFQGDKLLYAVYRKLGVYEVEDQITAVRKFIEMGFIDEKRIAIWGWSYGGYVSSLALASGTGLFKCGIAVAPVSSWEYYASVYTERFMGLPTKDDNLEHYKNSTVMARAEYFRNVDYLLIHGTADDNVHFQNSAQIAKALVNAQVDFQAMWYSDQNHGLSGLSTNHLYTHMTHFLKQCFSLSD

Measured: binding result

B1: DARPin #6 (designed binder)
chain: DLGKKLLEAARAGQDDEVRILMANGADVNASDNWGRTPLHVAAQRGHLEIVDVLLAHGADDNASNRWGSTPLHVAAYTGHLEIVDVLLANGADVNASTANGETPLHAAAHAGHLEIVDVLLKHGADVNAQDKFGKTPFDLAIDNGNEDIAEVLQ
notes: also called designed ankyrin repeat domain #6; not shown: N terminal His6 tag; C terminal FLAG tag
binds: all assays above
